Assay results reported in patent publication US12679878B2, “CRF2 receptor agonists and their use in therapy” (SANOFI, priority 2020, dated 2026).
Starred links: 1 amine or outer side, 2 acyl side, 3 side chain; linkers in the order of their positions; H or OH if unused. Non-standard residues stand in square brackets, D forms with d. Groups on a side chain read outwards from the residue. No end group written: not given here. *: point of attachment. C20 diacid = O=C(O)CCCCCCCCCCCCCCCCCCC(=O)*; C18 diacid = O=C(O)CCCCCCCCCCCCCCCCC(=O)*; γGlu = O=C(O)[C@H](CCC(=O)[*:2])N[*:1]; AEEA = NCCOCCOCC(=O)O; Aib = CC(C)(N)C(=O)O

T1: anti-target CRF1R receptor (UniProt P34998 24-415, limits assumed)
T1 sequence (looked up): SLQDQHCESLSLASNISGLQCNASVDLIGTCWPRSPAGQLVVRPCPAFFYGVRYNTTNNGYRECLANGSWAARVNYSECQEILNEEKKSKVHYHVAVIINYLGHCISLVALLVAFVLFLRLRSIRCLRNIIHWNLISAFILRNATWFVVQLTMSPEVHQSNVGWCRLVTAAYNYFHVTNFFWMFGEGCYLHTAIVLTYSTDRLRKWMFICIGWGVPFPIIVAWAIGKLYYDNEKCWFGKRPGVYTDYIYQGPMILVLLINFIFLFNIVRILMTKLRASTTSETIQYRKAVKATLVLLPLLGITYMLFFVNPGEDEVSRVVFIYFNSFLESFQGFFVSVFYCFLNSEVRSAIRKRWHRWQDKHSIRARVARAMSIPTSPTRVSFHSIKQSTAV

B1: peptide of SEQ ID NO: 54 (peptide)
peptide: FTLSLDVPIKLK([AEEA-AEEA-γGlu-C18 diacid])QILLKQQKQKKERQQAETNVQLLERV-NH2
modifications: N-terminus assumed
SMILES: CC[C@H](C)[C@H](NC(=O)[C@H](CCC(N)=O)NC(=O)[C@H](CCCCNC(=O)COCCOCCNC(=O)COCCOCCNC(=O)CC[C@H](NC(=O)CCCCCCCCCCCCCCCCC(=O)O)C(=O)O)NC(=O)[C@H](CC(C)C)NC(=O)[C@H](CCCCN)NC(=O)[C@@H](NC(=O)[C@@H]1CCCN1C(=O)[C@@H](NC(=O)[C@H](CC(=O)O)NC(=O)[C@H](CC(C)C)NC(=O)[C@H](CO)NC(=O)[C@H](CC(C)C)NC(=O)[C@@H](NC(=O)[C@@H](N)Cc1ccccc1)[C@@H](C)O)C(C)C)[C@@H](C)CC)C(=O)N[C@@H](CC(C)C)C(=O)N[C@@H](CC(C)C)C(=O)N[C@@H](CCCCN)C(=O)N[C@@H](CCC(N)=O)C(=O)N[C@@H](CCC(N)=O)C(=O)N[C@@H](CCCCN)C(=O)N[C@@H](CCC(N)=O)C(=O)N[C@@H](CCCCN)C(=O)N[C@@H](CCCCN)C(=O)N[C@@H](CCC(=O)O)C(=O)N[C@@H](CCCNC(=N)N)C(=O)N[C@@H](CCC(N)=O)C(=O)N[C@@H](CCC(N)=O)C(=O)N[C@@H](C)C(=O)N[C@@H](CCC(=O)O)C(=O)N[C@H](C(=O)N[C@@H](CC(N)=O)C(=O)N[C@H](C(=O)N[C@@H](CCC(N)=O)C(=O)N[C@@H](CC(C)C)C(=O)N[C@@H](CC(C)C)C(=O)N[C@@H](CCC(=O)O)C(=O)N[C@@H](CCCNC(=N)N)C(=O)N[C@H](C(N)=O)C(C)C)C(C)C)[C@@H](C)O
B2: peptide of SEQ ID NO: 61 (peptide)
peptide: FTLSLDVPTKIK([AEEA-AEEA-γGlu-C20 diacid])QILLKQQKQKKERQQAETNKQLLERV-NH2
B3: peptide of SEQ ID NO: 62 (peptide)
peptide: FTLSLDVPIKLK([AEEA-AEEA-γGlu-C20 diacid])QILLKQQKQKKERQQAETNVQLLERV-NH2
B4: peptide of SEQ ID NO: 63 (peptide)
peptide: FTLSLDVPIKLK([AEEA-AEEA-γGlu-C20 diacid])QILLEQQKQKKERQQAETNVQLLERV-NH2
B5: peptide of SEQ ID NO: 53 (peptide)
peptide: FTLSLDVPTKIK([AEEA-AEEA-γGlu-C18 diacid])QILLKQQKQKKERQQAETNKQLLERV-NH2
modifications: N-terminus assumed
SMILES: CC[C@H](C)[C@H](NC(=O)[C@H](CCC(N)=O)NC(=O)[C@H](CCCCNC(=O)COCCOCCNC(=O)COCCOCCNC(=O)CC[C@H](NC(=O)CCCCCCCCCCCCCCCCC(=O)O)C(=O)O)NC(=O)[C@@H](NC(=O)[C@H](CCCCN)NC(=O)[C@@H](NC(=O)[C@@H]1CCCN1C(=O)[C@@H](NC(=O)[C@H](CC(=O)O)NC(=O)[C@H](CC(C)C)NC(=O)[C@H](CO)NC(=O)[C@H](CC(C)C)NC(=O)[C@@H](NC(=O)[C@@H](N)Cc1ccccc1)[C@@H](C)O)C(C)C)[C@@H](C)O)[C@@H](C)CC)C(=O)N[C@@H](CC(C)C)C(=O)N[C@@H](CC(C)C)C(=O)N[C@@H](CCCCN)C(=O)N[C@@H](CCC(N)=O)C(=O)N[C@@H](CCC(N)=O)C(=O)N[C@@H](CCCCN)C(=O)N[C@@H](CCC(N)=O)C(=O)N[C@@H](CCCCN)C(=O)N[C@@H](CCCCN)C(=O)N[C@@H](CCC(=O)O)C(=O)N[C@@H](CCCNC(=N)N)C(=O)N[C@@H](CCC(N)=O)C(=O)N[C@@H](CCC(N)=O)C(=O)N[C@@H](C)C(=O)N[C@@H](CCC(=O)O)C(=O)N[C@H](C(=O)N[C@@H](CC(N)=O)C(=O)N[C@@H](CCCCN)C(=O)N[C@@H](CCC(N)=O)C(=O)N[C@@H](CC(C)C)C(=O)N[C@@H](CC(C)C)C(=O)N[C@@H](CCC(=O)O)C(=O)N[C@@H](CCCNC(=N)N)C(=O)N[C@H](C(N)=O)C(C)C)[C@@H](C)O
B6: peptide of SEQ ID NO: 60 (peptide)
peptide: FTLSLDVPTKIK([AEEA-AEEA-γGlu-C20 diacid])QILLKQQKQKKERQQAEKNKQLLERV-NH2
B7: peptide of SEQ ID NO: 69 (peptide)
peptide: IVLSLDVPIKLK([AEEA-AEEA-γGlu-C18 diacid])K[Aib]LLEQERQKKQREQAETNKQILAQV-NH2
modifications: N-terminus assumed
SMILES: CC[C@H](C)[C@H](N)C(=O)N[C@H](C(=O)N[C@@H](CC(C)C)C(=O)N[C@@H](CO)C(=O)N[C@@H](CC(C)C)C(=O)N[C@@H](CC(=O)O)C(=O)N[C@H](C(=O)N1CCC[C@H]1C(=O)N[C@H](C(=O)N[C@@H](CCCCN)C(=O)N[C@@H](CC(C)C)C(=O)N[C@@H](CCCCNC(=O)COCCOCCNC(=O)COCCOCCNC(=O)CC[C@H](NC(=O)CCCCCCCCCCCCCCCCC(=O)O)C(=O)O)C(=O)N[C@@H](CCCCN)C(=O)NC(C)(C)C(=O)N[C@@H](CC(C)C)C(=O)N[C@@H](CC(C)C)C(=O)N[C@@H](CCC(=O)O)C(=O)N[C@@H](CCC(N)=O)C(=O)N[C@@H](CCC(=O)O)C(=O)N[C@@H](CCCNC(=N)N)C(=O)N[C@@H](CCC(N)=O)C(=O)N[C@@H](CCCCN)C(=O)N[C@@H](CCCCN)C(=O)N[C@@H](CCC(N)=O)C(=O)N[C@@H](CCCNC(=N)N)C(=O)N[C@@H](CCC(=O)O)C(=O)N[C@@H](CCC(N)=O)C(=O)N[C@@H](C)C(=O)N[C@@H](CCC(=O)O)C(=O)N[C@H](C(=O)N[C@@H](CC(N)=O)C(=O)N[C@@H](CCCCN)C(=O)N[C@@H](CCC(N)=O)C(=O)N[C@H](C(=O)N[C@@H](CC(C)C)C(=O)N[C@@H](C)C(=O)N[C@@H](CCC(N)=O)C(=O)N[C@H](C(N)=O)C(C)C)[C@@H](C)CC)[C@@H](C)O)[C@@H](C)CC)C(C)C)C(C)C
B8: peptide of SEQ ID NO: 58 (peptide)
peptide: FTLSLDVPTKIK([AEEA-AEEA-γGlu-C20 diacid])QILFKQQKQKKERQQAEKNKQLLEQI-NH2
B9: peptide of SEQ ID NO: 67 (peptide)
peptide: IVLSLDVPIKLK([AEEA-AEEA-γGlu-C18 diacid])QILLEQEKQKKQREQAETNKQILAQV-NH2
modifications: N-terminus assumed
SMILES: CC[C@H](C)[C@H](N)C(=O)N[C@H](C(=O)N[C@@H](CC(C)C)C(=O)N[C@@H](CO)C(=O)N[C@@H](CC(C)C)C(=O)N[C@@H](CC(=O)O)C(=O)N[C@H](C(=O)N1CCC[C@H]1C(=O)N[C@H](C(=O)N[C@@H](CCCCN)C(=O)N[C@@H](CC(C)C)C(=O)N[C@@H](CCCCNC(=O)COCCOCCNC(=O)COCCOCCNC(=O)CC[C@H](NC(=O)CCCCCCCCCCCCCCCCC(=O)O)C(=O)O)C(=O)N[C@@H](CCC(N)=O)C(=O)N[C@H](C(=O)N[C@@H](CC(C)C)C(=O)N[C@@H](CC(C)C)C(=O)N[C@@H](CCC(=O)O)C(=O)N[C@@H](CCC(N)=O)C(=O)N[C@@H](CCC(=O)O)C(=O)N[C@@H](CCCCN)C(=O)N[C@@H](CCC(N)=O)C(=O)N[C@@H](CCCCN)C(=O)N[C@@H](CCCCN)C(=O)N[C@@H](CCC(N)=O)C(=O)N[C@@H](CCCNC(=N)N)C(=O)N[C@@H](CCC(=O)O)C(=O)N[C@@H](CCC(N)=O)C(=O)N[C@@H](C)C(=O)N[C@@H](CCC(=O)O)C(=O)N[C@H](C(=O)N[C@@H](CC(N)=O)C(=O)N[C@@H](CCCCN)C(=O)N[C@@H](CCC(N)=O)C(=O)N[C@H](C(=O)N[C@@H](CC(C)C)C(=O)N[C@@H](C)C(=O)N[C@@H](CCC(N)=O)C(=O)N[C@H](C(N)=O)C(C)C)[C@@H](C)CC)[C@@H](C)O)[C@@H](C)CC)[C@@H](C)CC)C(C)C)C(C)C

Biological target: rat CRF2R α receptor (rat, UniProt P47866 20-411)
Assay: cell-based or functional assay

rat CRF2R α receptor, sequence (P47866 20-411): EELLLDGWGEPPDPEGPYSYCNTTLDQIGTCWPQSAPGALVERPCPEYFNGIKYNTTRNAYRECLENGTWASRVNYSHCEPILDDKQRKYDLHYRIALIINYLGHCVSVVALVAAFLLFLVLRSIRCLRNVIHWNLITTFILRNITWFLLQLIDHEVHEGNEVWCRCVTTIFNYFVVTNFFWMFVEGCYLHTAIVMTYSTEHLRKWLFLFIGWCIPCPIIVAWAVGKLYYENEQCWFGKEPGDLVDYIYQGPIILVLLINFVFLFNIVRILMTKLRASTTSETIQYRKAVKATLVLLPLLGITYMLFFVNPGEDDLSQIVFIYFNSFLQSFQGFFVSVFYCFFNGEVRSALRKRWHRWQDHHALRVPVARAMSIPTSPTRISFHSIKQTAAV

Row | EC50 [nM], 0% HSA (cAMP, A7R5 cells) [nM] | Binder
1 | 1.51 | B1
2 | 0.94 | B2
3 | 2.9 | B3
4 | 4.73 | B4
5 | 1.32 | B5
6 | 1.35 | B6
7 | 7.33 | B7
8 | 0.72 | B8
9 | 0.66 | B9

Biological target: T1, anti-target CRF1R receptor
Assay: cell-based or functional assay

Row | EC50[nM] 0% HSA (cAMP, CRF1R-overexpression CHO cells) [nM] | Emax (%) (cAMP, CRF1R-overexpression CHO cells) | Binder
10 | > 1000 | 2.72 | B1
11 | > 1000 | 3.31 | B2
12 | > 1000 | 2.28 | B3
13 | > 1000 | 4.68 | B4
14 | > 1000 | 4.14 | B5
15 | > 1000 | 4.84 | B6
16 | > 1000 | 0.02 | B7
17 | > 1000 | 9.12 | B8
18 | > 1000 | 9.18 | B9
